# ± gives the uncertainty stated by the source.
# Assay: self-splicing fitness, log relative to wild type (ln ratio); higher = more splicing; Tetrahymena group I intron in knt gene, E. coli kanamycin selection, DiMSum; sequences stand for … in CUCUCU…GGAGGGAAAAGUUAUCAGGCAUGCACCUGGUAGCUAGUCUUUAAACCAAUAGAUUGCAUCGGUUUAAAAGGCAAGACCGUCAAAUUGCGGGAAAGGGGUCAACAGCCGUUCAGUACCAAGUCUCAGGGGAAACUUUGAGAUGGCCUUGCAAAGGGUAUGGUAAUAAGCUGACGGACAUGGUCCUAACCACGCAGCCAAGUCCUAAGUCAACAGAUCUUCUGUUGAUAUGGAUGCAGUUCACAGACUAAAUGUCGGUCGGGGAAGAUGUAUUCUUCUCAUAAGAUAUAGUCGGACCUCUCCUUAAUGGGAGCUAGCGGAUGAAGUGAUGCAACACUGGAGCCGCUGGGAACUAAUUUGUAUGCGAAAGUAUAUUGAUUAGUUUUGGAGUACUCGUGGUCG
# Outline: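 Pooled colonies went to amplicon sequencing on an Illumina HiSeq 2500 after six replicate transformations. The plates were LB agar with 100 μg/mL carbenicillin, 50 μM IPTG and 0.2% rhamnose, with or without 25 μg/mL kanamycin, incubated overnight at 37°C or 30°C. The E. coli BL21(DE3) library had all eight P1ex-region intron nucleotides randomised, the intron placed in the knt kanamycin-resistance gene on pET-22b(+). DiMSum fitness is the error-weighted combination of replicate fold changes, kanamycin against none, normalised to wild type.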
Sequence,self-splicing fitness (ln) (30 °C),self-splicing fitness (ln) (37 °C)
UGCGAGCAAUAUUACGUUCA,-1.45 ± 0.11,-0.32 ± 0.15
UGCUAGCAAUAUUACGCAAA,,-0.861 ± 0.16
UGCUAGCAAUAUUACGCACU,-2.3 ± 0.11,-1.11 ± 0.11
UGCUAGCAAUAUUACGCCAG,,-2.17 ± 0.39
UGCUAGCAAUAUUACGCCCA,0.275 ± 0.1,0.384 ± 0.13
UGCUAGCAAUAUUACGCCCU,-0.725 ± 0.27,-0.338 ± 0.27
UGCUAGCAAUAUUACGCUAC,-2.72 ± 0.48,-2.32 ± 0.47
UGCUAGCAAUAUUACGCUGA,-1.25 ± 0.12,-1.18 ± 0.13
UGCUAGCAAUAUUACGCUUA,-1.31 ± 0.11,-0.517 ± 0.12
UGCUAGCAAUAUUACGGCAA,-0.895 ± 0.16,-1.1 ± 0.16
UGCUAGCAAUAUUACGGCUU,-0.619 ± 0.13,-1.06 ± 0.15
UGCUAGCAAUAUUACGGGAG,-2.68 ± 0.17,-1.65 ± 0.13
UGCUAGCAAUAUUACGGUGA,-1.42 ± 0.12,-0.513 ± 0.13
UGCUAGCAAUAUUACGGUGU,-3.16 ± 0.14,-2.38 ± 0.19
UGCUAGCAAUAUUACGUACG,-0.494 ± 0.09,0.0248 ± 0.1
UGCUAGCAAUAUUACGUACU,-0.707 ± 0.075,-0.893 ± 0.089
UGCUAGCAAUAUUACGUGCG,-1.94 ± 0.1,-1.7 ± 0.12
UGCUAGCAAUAUUACGUGGA,-3 ± 0.19,-2.44 ± 0.15
UGCUAGCAAUAUUACGUGUG,-1.63 ± 0.08,-0.822 ± 0.096
UGGAAGCAAUAUUACGACAC,-2.87 ± 0.17,-3.13 ± 0.25
UGGAAGCAAUAUUACGACUU,0.319 ± 0.15,0.0401 ± 0.17
UGGAAGCAAUAUUACGAGUU,-3.25 ± 0.19,-1.8 ± 0.16
UGGAAGCAAUAUUACGAUCA,-0.348 ± 0.093,0.181 ± 0.12
UGGAAGCAAUAUUACGCAUC,,-1.1 ± 0.3
UGGAAGCAAUAUUACGCCAA,-1.12 ± 0.24,-0.536 ± 0.26

Sequence,self-splicing fitness (ln) (30 °C),self-splicing fitness (ln) (37 °C)
UGGAAGCAAUAUUACGCCCC,-1.69 ± 0.41,-1.36 ± 0.35
UGGAAGCAAUAUUACGCGAU,-2.02 ± 0.14,-2.12 ± 0.25
UGGAAGCAAUAUUACGCGCU,-1.17 ± 0.21,-1.52 ± 0.3
UGGAAGCAAUAUUACGCGGC,-2.11 ± 0.26,-1.08 ± 0.26
UGGAAGCAAUAUUACGCGUU,-4.13 ± 0.18,-3.03 ± 0.26
UGGAAGCAAUAUUACGCUCG,-0.853 ± 0.13,-0.272 ± 0.15
UGGAAGCAAUAUUACGCUUU,-3.64 ± 0.23,-2.64 ± 0.28
UGGAAGCAAUAUUACGGAAA,-1.8 ± 0.41,-1.43 ± 0.4
UGGAAGCAAUAUUACGGAAU,-2.76 ± 0.12,-1.01 ± 0.096
UGGAAGCAAUAUUACGUCCC,-0.397 ± 0.19,0.402 ± 0.22
UGGAAGCAAUAUUACGUCCG,-2.72 ± 0.21,-2.41 ± 0.22
UGGAAGCAAUAUUACGUGGG,-2.89 ± 0.13,-2.53 ± 0.18
UGGCAGCAAUAUUACGAACU,-1.29 ± 0.12,-0.471 ± 0.16
UGGCAGCAAUAUUACGAAGU,-3.69 ± 0.37,-2.62 ± 0.23
UGGCAGCAAUAUUACGACCU,0.0278 ± 0.12,0.0625 ± 0.12
UGGCAGCAAUAUUACGAUGG,-1.48 ± 0.17,-1.67 ± 0.18
UGGCAGCAAUAUUACGCCGU,-2.63 ± 0.18,-2.02 ± 0.17
UGGCAGCAAUAUUACGCGGG,-2.76 ± 0.27,-1.48 ± 0.24
UGGCAGCAAUAUUACGCGUA,-0.0648 ± 0.084,-0.33 ± 0.087
UGGCAGCAAUAUUACGCUAA,-0.652 ± 0.06,0.116 ± 0.069
UGGCAGCAAUAUUACGCUAC,-3.85 ± 0.35,
UGGCAGCAAUAUUACGCUCC,-2.19 ± 0.37,
UGGCAGCAAUAUUACGCUGC,-2.98 ± 0.25,
UGGCAGCAAUAUUACGGAAA,-1.94 ± 0.16,-0.318 ± 0.14
UGGCAGCAAUAUUACGGACA,0.0855 ± 0.098,0.0548 ± 0.14

Sequence,self-splicing fitness (ln) (30 °C),self-splicing fitness (ln) (37 °C)
UGGCAGCAAUAUUACGGACU,-0.554 ± 0.066,0.386 ± 0.082
UGGCAGCAAUAUUACGGCAA,0.308 ± 0.22,0.661 ± 0.19
UGGCAGCAAUAUUACGGCGG,-0.882 ± 0.11,0.549 ± 0.15
UGGCAGCAAUAUUACGGGGG,-3.38 ± 0.23,-2.84 ± 0.29
UGGCAGCAAUAUUACGUAAU,-2.04 ± 0.082,-1.05 ± 0.11
UGGCAGCAAUAUUACGUAUA,-1.29 ± 0.097,0.00255 ± 0.11
UGGCAGCAAUAUUACGUCGU,-2.65 ± 0.099,-1.22 ± 0.096
UGGCAGCAAUAUUACGUUAG,-0.283 ± 0.087,0.37 ± 0.12
UGGGAGCAAUAUUACGAAUU,,-2.63 ± 0.28
UGGGAGCAAUAUUACGACUG,-0.532 ± 0.39,-1.31 ± 0.47
UGGGAGCAAUAUUACGACUU,-2.15 ± 0.091,-0.921 ± 0.11
UGGGAGCAAUAUUACGCGGG,-3.85 ± 0.22,-2.89 ± 0.19
UGGGAGCAAUAUUACGCGUC,-0.5 ± 0.36,
UGGGAGCAAUAUUACGGGGG,-2.97 ± 0.25,-2.17 ± 0.35
UGGGAGCAAUAUUACGUACA,-1.26 ± 0.22,-0.889 ± 0.42
UGGGAGCAAUAUUACGUCAC,-1.96 ± 0.36,
UGGGAGCAAUAUUACGUCAG,-2.87 ± 0.23,-1.5 ± 0.3
UGGGAGCAAUAUUACGUCCA,-2.03 ± 0.12,-1.13 ± 0.11
UGGGAGCAAUAUUACGUGCA,-1.07 ± 0.093,-0.293 ± 0.11
UGGGAGCAAUAUUACGUGCC,-2.29 ± 0.34,-2.09 ± 0.35
UGGGAGCAAUAUUACGUGGA,-2.94 ± 0.44,-2.11 ± 0.2
UGGUAGCAAUAUUACGAACG,-0.892 ± 0.19,0.374 ± 0.22
UGGUAGCAAUAUUACGAAUU,-1.86 ± 0.36,-2.22 ± 0.32
UGGUAGCAAUAUUACGACGG,-1.49 ± 0.11,-0.695 ± 0.13
UGGUAGCAAUAUUACGAGAU,,-1.76 ± 0.43

Sequence,self-splicing fitness (ln) (30 °C),self-splicing fitness (ln) (37 °C)
UGGUAGCAAUAUUACGAGGA,-2.9 ± 0.26,-2.09 ± 0.32
UGGUAGCAAUAUUACGAGGC,-2.16 ± 0.28,-2.19 ± 0.28
UGGUAGCAAUAUUACGAUGC,-3.09 ± 0.5,-1.82 ± 0.43
UGGUAGCAAUAUUACGCGAA,-0.913 ± 0.11,-0.833 ± 0.11
UGGUAGCAAUAUUACGCUCC,-2.54 ± 0.24,-2.44 ± 0.21
UGGUAGCAAUAUUACGGACG,1.33 ± 0.17,0.34 ± 0.19
UGGUAGCAAUAUUACGGACU,-0.67 ± 0.17,0.844 ± 0.2
UGGUAGCAAUAUUACGGAGG,-3.85 ± 0.27,-1.56 ± 0.16
UGGUAGCAAUAUUACGGAUU,-3.77 ± 0.4,-0.91 ± 0.31
UGGUAGCAAUAUUACGGCAU,-1.5 ± 0.2,-0.405 ± 0.21
UGGUAGCAAUAUUACGGCGC,-1.57 ± 0.37,-0.642 ± 0.3
UGGUAGCAAUAUUACGGGGG,-3.73 ± 0.32,-2.45 ± 0.33
UGGUAGCAAUAUUACGGUCU,-0.135 ± 0.21,-0.457 ± 0.33
UGGUAGCAAUAUUACGUAAU,-1.61 ± 0.19,-0.903 ± 0.16
UGGUAGCAAUAUUACGUACA,-0.28 ± 0.087,0.35 ± 0.12
UGGUAGCAAUAUUACGUCGG,-1.21 ± 0.12,-0.18 ± 0.15
UGGUAGCAAUAUUACGUGGA,-2.71 ± 0.26,-1.98 ± 0.16
UGGUAGCAAUAUUACGUUUG,-1.26 ± 0.07,-0.669 ± 0.098
UGUAAGCAAUAUUACGAAUA,-0.825 ± 0.21,-0.536 ± 0.23
UGUAAGCAAUAUUACGAAUG,-0.511 ± 0.077,-0.125 ± 0.099
UGUAAGCAAUAUUACGACUU,-1.06 ± 0.09,0.0267 ± 0.14
UGUAAGCAAUAUUACGAGAC,-3.68 ± 0.43,-0.552 ± 0.26
UGUAAGCAAUAUUACGAUCG,0.587 ± 0.097,-0.129 ± 0.11

# — the supplement of paper PMC7877785
